Results published in article doi:10.64898/2025.12.16.694761.

Molecular target: Nitrous oxide reductase NosZ (clade I) of Trinickia sp. Z7 (Trinickia sp. Z7)
Assay: cryo-EM structure

In the case of “Nitrous oxide reductase NosZ (clade I) of Trinickia sp. Z7 (enzyme)”, the stoichiometry N is reported as 2.
